# B1: CPEB3 Ribozyme (parent)
# chain: UAACAGGGGGCCACAGCAGAAGCGUUCACGUCGCAGCCCCUGUCAGAUUCUGGUGAAUCUGCGAAUUCUGCUGUAUAUCUC
# Variants of: B1
# Assay: self-cleavage, relative activity (ratio to wild type); higher = more cleavage; in vitro, sequencing
# Summary of the method: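 For each CPEB3 ribozyme variant, relative activity is its cleaved/total read fraction divided by the unmutated ribozyme's. Barcoded error-prone PCR libraries were transcribed by T7 RNA polymerase (5 hours, 37°C) and held in DNase I for 15 min before an EDTA stop, with cleavage occurring throughout. Template-switching reverse transcription and Illumina sequencing were used to read the RNAs. A 5-read minimum applied, and results are the mean of three batches.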
row,Variant,self-cleavage
1,A47C U74C,0.7
2,G46A A57G,0.16
3,G46U U69C,0.53
4,G46U U69A,0.22
5,A47U A77G,0.37
6,A47U A77U,0.71
7,G46C U76C,0.5
8,G46C U76A,0.22
9,A47U A75G,0.38
10,A47U A75U,1
11,G46U U66C,0.16
12,A47U U60A,0.21
13,A47U U60G,0.29
14,A47U U60C,0.23
15,A47G G52A,1.25
16,A45U U76C,0.49
17,A45U U76A,0.52
18,G46A U69C,0.07
19,A47U C50A,0.23
20,G46U C68U,0.23
21,G46U U48G,0.14
22,A47C U78C,0.54
23,A47C U78A,0.51
24,A47C U78G,0.46

row,Variant,self-cleavage
1,G46C U60A,0.11
2,G46C U60C,0.2
3,G46A U60A,0.5
4,G46A U60C,0.14
5,A45U G73U,1.2
6,A45U G73A,1.23
7,A47U G53U,1.03
8,A47U U72C,0.53
9,A47U U72A,0.35
10,A45U U60A,1.09
11,A45U U60C,0.46
12,A45U U60G,0.68
13,A47U U76C,0.59
14,A47U U76A,0.82
15,A45U C81A,0.87
16,A45U C81U,0.46
17,A45U G46A,0.41
18,A47G G70A,0.77
19,A47G U48A,0.23
20,A47G U48C,0.31
21,A47G U48G,0.26
22,U48A A56G,0.33
23,U48A A56C,0.26
24,U48A A56U,0.31

row,Variant,self-cleavage
1,A47U U80G,0.8
2,A47U U80C,0.66
3,A47U U80A,0.51
4,G46C A47G,0.26
5,A47G U66A,0.45
6,A47G U66G,0.27
7,A47G U66C,0.35
8,G46C A64U,0.11
9,G46U U51C,0.28
10,A47U U48G,0.18
11,A47U U48C,0.26
12,A45U U67A,0.24
13,A45U U67G,0.17
14,A45U U67C,0.27
15,U48A C62U,0.43
16,A47G A56U,0.45
17,A47G A56G,0.71
18,A47G A56C,0.95
19,G46A G53A,0.45
20,A45U U49A,0.17
21,A45U U49C,0.25
22,A47G U69G,0.68
23,A47G U69A,0.6
24,A47G U69C,0.57

row,Variant,self-cleavage
1,A47G U67C,0.35
2,A47G U67A,0.49
3,A47G U67G,0.34
4,A47G A57C,0.36
5,A47G A57U,0.29
6,A47G A57G,0.51
7,A45U G70A,0.29
8,G46C U51A,0.25
9,U48A A64G,0.26
10,U48A A64U,0.14
11,A47G U49G,0.47
12,A47G U49C,0.33
13,A47G U49A,0.34
14,A47U C62U,0.33
15,U48A C71A,0.2
16,G46U A77G,0.2
17,A47U G63A,0.29
18,A47C U51A,0.33
19,A47C C59U,0.18
20,A47U U49C,0.46
21,A47U U49A,0.41
22,A45U U58A,0.12
23,A45U U58C,0.29
24,G46A U80C,0.37

row,Variant,self-cleavage
1,G46C,0.32
2,G46A,0.33
3,G46U,0.28
4,A47G A64U,0.34
5,A47G A64G,0.9
6,G46U U74A,0.46
7,U48A A75G,0.32
8,U48A A75U,0.61
9,G46U U54G,0.16
10,G46U U54C,0.14
11,A47U A57G,0.32
12,A47U A57U,0.64
13,A45U U48A,0.15
14,A45U U48C,0.34
15,G46A A75G,0.25
16,G46C U78C,0.21
17,G46U A47G,0.15
18,U48A U60A,0.31
19,A47U C59A,0.17
20,A47U C59U,0.2
21,A47G U54C,1.01
22,A47G U54A,1.08
23,U48A U58A,0.5
24,U48A U58C,0.29

row,Variant,self-cleavage
1,U48A U58G,0.18
2,A47U U66C,0.36
3,A47U U66A,0.26
4,A45U U51G,0.46
5,A45U U51A,0.33
6,A45U U51C,0.48
7,A47C U67C,0.12
8,A47C U67A,0.23
9,G46A U58C,0.38
10,A47U U69A,0.34
11,A47U U69C,0.33
12,A47G G55C,0.57
13,A47G G55A,0.75
14,A47G G55U,0.99
15,A47G C81U,1.04
16,A47C C71U,0.13
17,A47C G73A,0.85
18,U48A C59A,0.44
19,G46A A64U,0.08
20,G46A A64G,0.19
21,A47C U72A,0.26
22,G46A U54C,0.06
23,A47C A64U,0.45
24,A47C A64G,0.26

row,Variant,self-cleavage
1,A45U U80C,0.62
2,A47G A75C,0.98
3,A47G A75G,0.88
4,A47G A75U,1.11
5,A45U U54C,0.53
6,A45U U54A,0.51
7,A45U U54G,0.21
8,G46A A56G,0.25
9,A45U U74A,1.03
10,A45U U74G,1.09
11,A45U U74C,0.87
12,A47G G61U,0.49
13,A47G G61A,0.61
14,A47G G61C,0.35
15,A47U,0.62
16,A47C,0.4
17,A47G,1.01
18,G46U U80C,0.3
19,A47G A77G,1.09
20,A47G A77U,1.06
21,G46A A65G,0.14
22,G46A A65U,0.43
23,G46U U67C,0.03
